According to PMC8395186, “Structural Basis of Inhibition of DCLK1 by Ruxolitinib” (International Journal of Molecular Sciences, 2021):

Biological target: the molecule itself
Assay: crystal structure; sitting-drop vapor diffusion at 23 °C; co-crystallised with AMP-PNP, then soaked with ruxolitinib; two molecules per asymmetric unit; interface analysed with the PISA server

B1: Doublecortin-like kinase 1 (DCLK1) kinase domain (domain or fragment, UniProt O15075 372-649, looked up)
chain: GEEVSEEGFQIPATITERYKVGRTIGDGNFAVVKECVERSTAREYALKIIKKSKCRGKEHMIQNEVSILRRVKHPNIVLLIEEMDVPTELYLVMELVKGGDLFDAITSTNKYTERDASGMLYNLASAIKYLHSLNIVHRDIKPENLLVYEHQDGSKSLKLGDFGLATIVDGPLYTVCGTPTYVAPEIIAETGYGLKVDIWAAGVITYILLCGFPPFRGSGDDQEVLFDQILMGQVDFPSPYWDNVSDSAKELITMMLLVDVDQRFSAVQVLEHPWVND
notes: Doublecortin-like kinase 1 (DCLK1), kinase domain, residues Gly372-Asp649; residues 376-648 are resolved in the structure; Non-phosphorylated; Crystallised with AMP-PNP, then soaked with ruxolitinib; Two molecules per asymmetric unit form the dimer; also called DCLK1KD; source: E. coli Rosetta2(DE3)pLysS, purified (Ni-NTA, TEV cleavage, SEC); not shown: His6, N-terminal, cleaved
Q: Which “stoichiometry N” value does the source give for B1 here?
A: 2
